Laboratory results as given in the supplement of paper PMC9732359.
± gives the uncertainty stated by the source.

Test: protein stability index of a GFP-peptide fusion (yeast GPS) (PSI 1-4); higher = more stable; sorted into four equal gates, so the index is relative within each strain
Outline: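 The protein stability index of a peptide was calculated by multiplying its read frequency in each gate by that gate's number and adding the products. The peptides were tiled 17-residue stretches of yeast proteins, fused downstream of GFP on a Cherry-expressing plasmid and carried in yeast as a pooled library. Mid-log cultures in leucine-free medium were sorted into four equal gates by GFP/Cherry ratio, and each gate's plasmids were PCR-amplified and Illumina-sequenced.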

Row | Sequence | protein stability index (doa10∆) | protein stability index (pdr5∆) | protein stability index (san1∆) | protein stability index (ubr1∆)
1 | LLVERLKEDDSSLYEAS [RPN1] | 3.22 ± 0.12 | 3.38 ± 0.12 | 3.06 ± 0.1 | 3.16 ± 0.18
2 | LESDVNIALVSKLRNNI [SRP54] | 2.31 ± 0.065 | 2.63 ± 0.056 | 2.74 ± 0.052 | 2.98 ± 0.067
3 | SVRKFLEIALFKYRKAR [RPO31] | 2.31 ± 0.12 | 1.18 ± 0.097 | 1.36 ± 0.17 | 1.32 ± 0.15
4 | HIEKLENEFVVLLDARD [CDC53] | 3.35 ± 0.088 | 3.05 ± 0.081 | 2.9 ± 0.14 | 3.27 ± 0.091
5 | LIRRLVRVGVLSEDKKK [RPS9A] | 1.7 ± 0.24 | 1.45 ± 0.29 |  | 1.12 ± 0.18
6 | PWNDDYPFLLSFLGEAK [YML103C/NUP188] | 1.42 ± 0.047 | 1.6 ± 0.061 | 1.66 ± 0.088 | 1.98 ± 0.046
7 | PYDKKKRVVVPQALRVL [RPL16A] | 2.32 ± 0.14 |  |  | 1.35 ± 0.14
8 | KENGQLIGAATKFKGGK [SEC65] | 1.7 ± 0.057 | 1.65 ± 0.073 | 1.54 ± 0.11 | 2.17 ± 0.072
9 | TASDQLFGMCESLYEPN [PUP3] | 2.06 ± 0.059 | 2.12 ± 0.058 | 2.71 ± 0.084 | 1.83 ± 0.039
10 | KKIKGKSIQDIVGLATL [SRP21] | 3.12 ± 0.039 | 3.22 ± 0.035 | 3.177 ± 0.026 | 3.116 ± 0.031
11 | TAKKDMSSTTPKLESVK [SNF12] | 3.31 ± 0.056 | 3.35 ± 0.05 | 3.1 ± 0.042 | 3.27 ± 0.04
12 | HASKAIGLPRHSLAYLL [RRP6] | 2.24 ± 0.046 | 2.2 ± 0.048 | 2.37 ± 0.059 | 1.72 ± 0.037
13 | TRNSLGNVIQFIYGEDG [RPO21] | 3.01 ± 0.06 | 2.92 ± 0.053 | 3.25 ± 0.042 | 3.28 ± 0.037
14 | TGKYGVRYGSSLRRQVK [RPL43A] | 3 ± 0.079 | 3.23 ± 0.066 | 3.42 ± 0.057 | 3.06 ± 0.046
15 | TPLTENILIASLMDTLI [YCG1] | 1.86 ± 0.049 | 1.7 ± 0.04 | 2.07 ± 0.069 | 2.35 ± 0.035
16 | KGNLLEGKKVMAPYLPG [RPN2] | 2.14 ± 0.061 | 1.95 ± 0.042 | 2.03 ± 0.068 | 2.14 ± 0.045
17 | PLQSMDIEQLEYSRDCF [RPB3] | 3.16 ± 0.074 | 3.17 ± 0.068 | 3.21 ± 0.08 | 2.93 ± 0.11
18 | ANANANATANATANATA [SNF11] | 3.14 ± 0.037 | 3.37 ± 0.037 | 3.285 ± 0.031 | 3.342 ± 0.029
19 | PNSGTATTGGFGANQAT [YGR119C/NUP57] | 2.12 ± 0.084 | 2.33 ± 0.07 | 2.12 ± 0.091 | 2.14 ± 0.067
20 | FESLPLKSAENSGKQQY [SWP82] | 3.17 ± 0.063 | 3.3 ± 0.057 | 3.01 ± 0.055 | 3.2 ± 0.056
21 | DYNFKYGIPLEFYNEMH [PRP8] | 2.98 ± 0.08 | 3.08 ± 0.091 | 1.78 ± 0.082 | 3.15 ± 0.083
22 | GAMTPEEIFFKSVRILK [RPC40] | 2.9 ± 0.12 | 3.28 ± 0.14 | 2.96 ± 0.14 | 3.22 ± 0.093
23 | PDCKIKIAHGTTTLAFR [PRE2] | 2.64 ± 0.077 | 2.72 ± 0.056 | 2.65 ± 0.066 | 2.71 ± 0.064
24 | YHRLSNKDMIKNLVKVL [CSN12] | 3.21 ± 0.26 | 2.97 ± 0.19 | 1.41 ± 0.25 | 
25 | SILGKFCPIVEEIVSNS [YCS4] | 1.95 ± 0.091 | 1.51 ± 0.12 | 1.6 ± 0.14 | 1.55 ± 0.066
26 | HESTSRTDQYTIDNIDS [YMR129W/POM152] | 2.84 ± 0.053 | 2.9 ± 0.053 | 2.9 ± 0.045 | 2.86 ± 0.045
27 | IPIGHVHVIHFQHADNS [AAR2] | 2.86 ± 0.11 | 2.71 ± 0.073 | 2.9 ± 0.074 | 2.65 ± 0.05

Row | Sequence | protein stability index (doa10∆) | protein stability index (pdr5∆) | protein stability index (san1∆) | protein stability index (ubr1∆)
28 | ENSEPPALESSPVTGDN [SNF2] | 3.3 ± 0.075 | 3.24 ± 0.073 | 3.19 ± 0.067 | 3.22 ± 0.062
29 | KTIEVTAEINCFMHLLV [RPN3] |  | 1.77 ± 0.26 | 1.78 ± 0.2 | 1.67 ± 0.19
30 | EQTTGGNNKDLKNTMQY [RPB4] | 3.24 ± 0.11 | 3.09 ± 0.082 | 2.65 ± 0.17 | 3.18 ± 0.19
31 | NDITNLQLSKTPLSIKI [SRB8] | 2.58 ± 0.062 | 2.52 ± 0.069 | 2.81 ± 0.056 | 2.77 ± 0.051
32 | GPVVAGINSKSGKPFIA [PUP3] | 3.18 ± 0.13 | 3.27 ± 0.11 | 2.99 ± 0.18 | 3.05 ± 0.11
33 | NLGEYYAQIGDKDNAEK [RPN7] | 1.92 ± 0.056 | 2.05 ± 0.075 | 2.49 ± 0.087 | 2.47 ± 0.053
34 | ESFKGLQPFWFRVNNAS [ECM29] | 2.05 ± 0.13 | 1.92 ± 0.11 |  | 2.09 ± 0.15
35 | TRPYILERARDVNIVNR [YCG1] | 3.29 ± 0.1 | 2.78 ± 0.21 | 3.48 ± 0.18 | 3.08 ± 0.11
36 | KMIDFATLSKLKKKYQI [SIR3] | 2.9 ± 0.11 | 3.35 ± 0.1 | 3.53 ± 0.051 | 3.47 ± 0.048
37 | ELDEHTTQIDLFRIFSM [BRR2] | 2.25 ± 0.1 | 1.56 ± 0.1 | 1.61 ± 0.15 | 1.22 ± 0.059
38 | SLTEATKTNVDNNSKAE [YLR335W/NUP2] | 3.14 ± 0.052 | 3.35 ± 0.064 | 3.14 ± 0.062 | 3.32 ± 0.042
39 | NSITKDNIDYAPMRLAT [YJL039C/NUP192] | 2.58 ± 0.048 | 2.74 ± 0.038 | 2.71 ± 0.05 | 2.57 ± 0.035
40 | AVHVTVRGPKAEEILER [RPL11A] | 2.99 ± 0.11 | 2.98 ± 0.094 | 2.92 ± 0.12 | 3.05 ± 0.074
41 | SLRETNTTDPLGHTKAA [SIR2] | 2.77 ± 0.15 | 2.7 ± 0.15 | 2.85 ± 0.13 | 3.2 ± 0.082
42 | IPTKESLTRDFEQCCKE [YIL149C/MLP2] | 2.81 ± 0.078 | 2.96 ± 0.13 | 2.62 ± 0.088 | 2.88 ± 0.13
43 | FGPIKVELPTKETVEIG [FAS1] | 3.01 ± 0.084 | 3.28 ± 0.07 | 3.23 ± 0.067 | 3.02 ± 0.066
44 | ALSLLYHLLNYDPIKRI [SSN3] | 2.56 ± 0.073 | 2.05 ± 0.051 | 2.39 ± 0.072 | 2.19 ± 0.039
45 | ESLKKSPIFEVLSDDAK [ARP9] | 3.01 ± 0.072 | 3.15 ± 0.079 | 3.06 ± 0.073 | 3.32 ± 0.058
46 | NTEITQKSSKENIENEE [ECM29] | 3.05 ± 0.082 | 3.28 ± 0.087 | 2.76 ± 0.078 | 2.94 ± 0.09
47 | SSEQDYSTLKELLEYSD [YCG1] | 2.92 ± 0.082 | 2.75 ± 0.088 | 3.15 ± 0.068 | 3.15 ± 0.086
48 | QAEATEWAEENADNVEW [RPS0A] | 2.18 ± 0.11 | 1.8 ± 0.11 | 2.27 ± 0.083 | 2.41 ± 0.066
49 | MNTVPFTSAPIEVTIGI [AAR2] | 1.49 ± 0.092 | 2.01 ± 0.12 | 1.47 ± 0.22 | 1.64 ± 0.083
50 | SNEICDLAYQYVRALEL [SRB2] | 2.92 ± 0.047 | 2.77 ± 0.037 | 2.88 ± 0.046 | 3.08 ± 0.042
51 | SVMMQDSPASNEDDLTV [RPO31] | 3.02 ± 0.097 | 3.08 ± 0.083 | 2.78 ± 0.076 | 3.31 ± 0.12
52 | KNAQYHLLVKQGDGLLT [RPN7] | 1.96 ± 0.1 | 1.61 ± 0.079 | 1.12 ± 0.18 | 1.22 ± 0.08
53 | SRDELIRLAKTLKKNNV [RPN10] | 1.77 ± 0.086 | 1.81 ± 0.091 | 2.42 ± 0.17 | 2.07 ± 0.089
